Substitutions are numbered along the chain they refer to. Where no end group is shown, it is not given here.
B1: mouse monoclonal antibody 15H11 (antibody, V domains shown)
VH: EVQLQQSGPELLKPGASVKISCKASGYTFTDYNMHWVKQSHGRSLEWIGRINPKNGVINSNEKFKDKATLTVDKSLSTAYMDLRSLTSEDSAVYFCAPSYYGGNTDAYWGHGTLVTVSA
VL: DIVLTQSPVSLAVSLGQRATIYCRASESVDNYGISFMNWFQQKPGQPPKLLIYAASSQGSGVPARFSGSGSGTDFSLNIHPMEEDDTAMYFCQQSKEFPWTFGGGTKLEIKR
notes: Mouse hybridoma antibody; also called mouse 15H11
B2: h15H11 heavy chain CDR mutant A101V (antibody, human IgG4 S228P, kappa, name in Kabat numbering, V domains shown)
VH: QVQLVQSGSELKKPGASVKVSCKASGYTFTDYNMHWVRQAPGRSLEWMGRINPKNGVINSNEKFKDRFVFSLDTSVSTAYLQISSLKAEDTAVYYCAPSYYGGNTDVYWGQGTLVTVSS
VL: DIVLTQSPASLAVSPGQRATITCRASESVDNYGISFMNWFQQKPGQPPKLLIYAASSQGSGVPARFSGSGSGTDFTLTINPMEANDTANYYCQQSKEFPWTFGGGTKVEIKR
notes: hIgG4Pro/hIgK
B3: h15H11 heavy chain CDR mutant M34L (antibody, human IgG4 S228P, kappa, name in Kabat numbering, V domains shown)
VH: B2 VH with M34L, V107A
VL: B2 VL
notes: hIgG4Pro/hIgK
B4: h15H11 light chain CDR mutant P95G (antibody, human IgG4 S228P, kappa, name in Kabat numbering, V domains shown)
VH: B2 VH with V107A
VL: B2 VL with P99G
notes: hIgG4Pro/hIgK
B5: h15H11 light chain CDR mutant Q90N (antibody, human IgG4 S228P, kappa, name in Kabat numbering, V domains shown)
VH: B2 VH with V107A
VL: B2 VL with Q94N
notes: hIgG4Pro/hIgK
B6: h15H11 light chain CDR mutant W96Y (antibody, human IgG4 S228P, kappa, name in Kabat numbering, V domains shown)
VH: B2 VH with V107A
VL: B2 VL with W100Y
notes: hIgG4Pro/hIgK

Assays:
[1] = target: T1, Cys-hCE3C peptide (CQPKYEYSL), hCE3C peptide of human Nav1.7 with an added N-terminal Cys (human, also: biotin-labeled, site not given here); assay: ELISA, hybridoma supernatant on anti-mouse IgG plate, biotin-labeled Cys-hCE3C + streptavidin-HRP
T1 construct: Residues 1424-1431 of human Nav1.7 (UniProtKB Q15858) plus an N-terminal Cys; also called immunogenic peptide; immunogen peptide
T1 peptide: CQPKYEYSL
Description: Three days after the final immunization, the spleen was removed, splenocytes and mouse myeloma cells (p3x6363-Ag8, Tokyo Oncology Institute) were fused by the PEG-method, and selection was made in a medium containing hypoxanthine, aminopterin and thymidine. Human Nav1.7-binding antibodies were identified by performing ELISA against immunogenic peptides using hybridoma culture supernatants. Specifically, hybridoma culture supernatant was added to an anti-mouse IgG antibody immobilized plate, washed twice with ELISA wash buffer, and biotin-labeled immunogenic peptide (Cys-hCE3C) and Streptavidin-HRP (manufactured by PIERCE) was added and reacted overnight at 4° C. After washing twice with ELISA wash buffer and developing color by adding TMB-Substrate Chromogen (manufactured by Thermo Fisher Scientific), the reaction was stopped with an equal volume of 0.5N sulfuric acid, and the absorbance at 450 nm was measured.

[2] = target: T2, epitope peptide Cys-CE3C long (also: biotin label, site not given here); assay: competitive ELISA (Example 5)
T2 peptide: CSVNVDKQPKYEYSL
Description: A diluted solution of the obtained recombinant humanized antibody, a biotin-labeled immunogen peptide, and Streptavidin-HRP (manufactured by PIERCE) were added to an anti-human IgG antibody-immobilized plate, and reacted overnight at 4° C. […] Next, a recombinant human antibody at the dilution rate, a biotin-labeled immunogen peptide, and Streptavidin-HRP (manufactured by PIERCE) were added. At the same time, a dilution series of unlabeled immunogenic peptide was added and reacted overnight at 4° C. After washing twice with ELISA wash buffer, TMB-Substrate Chromogen (manufactured by Thermo Fisher Scientific) was added to develop color, the reaction was stopped with an equal amount of 0.5N sulfuric acid, and the absorbance at 450 nm was measured. The concentration of the unlabeled peptide which attenuated the signal of the biotin-labeled peptide by half was defined as the affinity (IC50).

| Binder | binding result [1] | binding result [2] |
| --- | --- | --- |
| B1 | binds |  |
| B2 |  | no binding (tested: below the detection limit) |
| B3 |  | no binding (tested: below the detection limit) |
| B4 |  | no binding (tested: below the detection limit) |
| B5 |  | no binding (tested: below the detection limit) |
| B6 |  | no binding (tested: below the detection limit) |

Reference: patent US20250163145A1 (SHIONOGI, published 2025)
